PMC6921968

Target: SpyCatcher::HBsAg VLP (hepatitis B surface antigen genetically fused to SpyCatcher) (Streptococcus pyogenes | hepatitis B virus)
Experiment: covalent (isopeptide) coupling, SDS-PAGE with Coomassie staining and densitometry; SpyCatcher::HBsAg VLP incubated with Pfs25::SpyTag at molar ratio 1.5, 0.5 or 0.1, 3 h to overnight at room temperature, with 10x reaction buffer (40 mM Na2HPO4, 200 mM sodium citrate, pH 6.2); dialysed (100 kDa cut-off) against TBS; conjugation efficiency = % of total SpyCatcher::HBsAg coupled to Pfs25::SpyTag

Substance: Pfs25::SpyTag (Pfs25-SpyTag-Ctag)
- conjugation efficiency (% of total SpyCatcher::HBsAg coupled to Pfs25::SpyTag) at molar ratio 0.1: 10%
- conjugation efficiency (% of total SpyCatcher::HBsAg coupled to Pfs25::SpyTag) at molar ratio 0.5: 50%
- conjugation efficiency (% of total SpyCatcher::HBsAg coupled to Pfs25::SpyTag) at molar ratio 1.5: > 90%
